# From US20230277625A1 (SIMCHA IL 18, published 2023)
# Numbering of substitutions follows the chain as printed.
# B1: SEQ ID NO: 62 (murine DR-IL-18 variant mC1) (ligand)
# chain: NFGRLHCTTAVIRNINDQVLFVDKRQPVFEDMTDIDQSASEPQTRLIIYAYVDRRLRGKAVTLSVKDSKMSTLSCKNKIISFEEMDPPENIDDIQSDLIFFQKKVPGHNKMEFESSLYEGHFLACQKEDDAFKLILKKKDENGDKSVMFTLTNLHQS
# notes: Engineered variant
# B2: SEQ ID NO: 39 (human DR-IL-18 variant hA8) (ligand)
# chain: YFGKLESRLSVIRNLNDQVLFIDQGNRPLFEDMTDSDCRDNAPRTIFIISKYKDKQPRAQAVTISVKCEKISTLSCENKIISFKEMNPPDNIKDTKSDIIFFQRDVPGHKHKMQFESSSYEGYFLACEKERDLFKLILKKEDELGDRSIMFTIQNED
# notes: Engineered variant
# B3: SEQ ID NO: 90 (second generation human DR-IL-18 variant 6-27) (ligand)
# chain: YFGKLESKLSVIRNLNDQVLFIDQGNRPLFEDMTDSDCRDNAPRTIFIISKYSDSRARGLAVTISVKCEKISTLSCENKIISFKEMNPPDNIKDTKSDIIFFARSVPGHGRKTQFESSSYEGYFLACEKERDLFKLILKKEDELGDRSIMFTVQNED
# notes: Engineered variant; recombinant soluble analyte in SPR and cell assays
# B4: SEQ ID NO: 52 (human DR-IL-18 variant hH3) (ligand)
# chain: B2 chain with Y1R, K51T, K55S, A59G, Q60K, I153V
# notes: Engineered variant
# B5: SEQ ID NO: 57 (human DR-IL-18 variant hB9) (ligand)
# chain: RFGKHESKLSVIRNLNDQVLFIDQGNRPLFEDMTDSDCRDNAPRTIFIISTYRDSQPRGKAVTISVKCEKISTLSCENKIISFKEMNPPDNIKDTKSDIIFFERNVPGHKYKMQFESSSYEGYFLACEKERDLFKLILKKEDELGDRSIMFTVQNED
# notes: Engineered variant
# Experiments:
# [1] = target: T1, Mouse IL-18BP (amino acids 31-194), biotinylated (mouse, UniProt Q9Z0M9 29-193, biotin on the AviTag (BirA ligase)); experiment: SPR; KD ratio relative to WT IL-18; SPR; ratio normalized to WT
# T1 construct: also called mIL-18BP
# T1 sequence: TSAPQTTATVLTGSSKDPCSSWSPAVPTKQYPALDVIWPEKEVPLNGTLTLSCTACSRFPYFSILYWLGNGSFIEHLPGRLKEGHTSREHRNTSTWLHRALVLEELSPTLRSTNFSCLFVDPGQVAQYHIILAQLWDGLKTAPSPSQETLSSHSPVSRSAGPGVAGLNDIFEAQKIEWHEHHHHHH
# Description: (§1) Experiments were conducted using a Biacore T100 and carried out at 25° C. Biotinylated IL-18Rα or IL-18BP were immobilized onto a Biacore biotin capture chip (Series S CAP sensor chip, GE Healthcare) to yield an Rmax of ˜50 RU (IL-18Rα) or ˜10 RU (IL-18BP). Measurements were made with serial dilutions of the IL-18 variants in HEPES buffered Saline-P+buffer (10 mM HEPES pH 7.4, 150 mM NaCl, 0.005% surfactant P20). The surface was regenerated by three 60-sec injections of regeneration buffer (3/4 (v/v) 8M guanidine hydrochloride with 1/4 (v/v) 1M sodium hydroxide). Experiments were performed in multiple channels simultaneously for increased observations. All data were analyzed with the Biacore T100 evaluation software version 2.0 with a 1:1 Langmuir binding model.
# [2] = target: T2, Mouse IL-18Rα ectodomain (amino acids 19-329), biotinylated (mouse, UniProt Q61098 19-329, biotin on the AviTag (BirA ligase)); experiment: SPR (Biacore T100), receptor captured via biotin, IL-18 as analyte
# T2 construct: range 19-329; Secreted from Expi293 cells (H7 signal peptide removed); also called mIL-18Rα; mIL18Ra
# T2 sequence: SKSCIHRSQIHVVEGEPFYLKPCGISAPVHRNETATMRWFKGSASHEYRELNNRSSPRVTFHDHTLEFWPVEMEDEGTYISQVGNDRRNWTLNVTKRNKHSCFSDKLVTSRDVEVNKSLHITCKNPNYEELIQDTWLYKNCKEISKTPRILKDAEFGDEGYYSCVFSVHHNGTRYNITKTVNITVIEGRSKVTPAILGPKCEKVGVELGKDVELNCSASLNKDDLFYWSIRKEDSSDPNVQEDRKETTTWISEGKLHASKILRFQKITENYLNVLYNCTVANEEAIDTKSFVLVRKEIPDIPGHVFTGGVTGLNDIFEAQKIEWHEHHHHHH
# Description: as §1
# [3] = target: T1, Mouse IL-18BP (amino acids 31-194), …; experiment: yeast binding isotherms and SPR; members per FIG. 11A legend
# Description: (§2) Individual colonies of IL-18 yeast were grown overnight at 30° C. in SDCAA liquid media and induced in SGCAA liquid media for 1 day at 20° C. IL-18 display levels on yeast were verified by flow cytometry using an anti-cMyc tag antibody (anti-myc-PE; Cell Signaling Technologies). Receptor staining with biotinylated IL-18Rα (with or without IL-18R β) or biotinylated IL-18BP was performed in PBS supplemented with 0.5% BSA and 2 mM EDTA (PBE) on ice. All analysis was performed on a Sony SA3800 flow cytometer.
# as §1
# [4] = target: T1, Mouse IL-18BP (amino acids 31-194), …; experiment: on-yeast binding isotherms; KD ratio relative to WT IL-18; yeast-displayed variant; ratio normalized to WT, from the 10 µM placeholder
# Description: as §2
# [5] = target: T1, Mouse IL-18BP (amino acids 31-194), …; experiment: SPR (Biacore T100), IL-18BP captured via biotin, IL-18 as analyte; SPR, soluble variant
# Description: as §1
# [6] = target: T1, Mouse IL-18BP (amino acids 31-194), …; experiment: on-yeast binding isotherms; 10 µM used for NBD; yeast-displayed variant; ratio computed with 10 µM put in for NBD
# Description: as §2
# [7] = target: T2, Mouse IL-18Rα ectodomain (amino acids …); experiment: on-yeast binding isotherm (flow cytometry)
# Description: as §2
# [8] = target: T1, Mouse IL-18BP (amino acids 31-194), …; experiment: SPR; KD for IL-18BP over KD for IL-18Rα; SPR; ratio of two measured KD
# Description: as §1
# [9] = target: T3, Human IL-18BP (amino acids 31-194), biotinylated (human, UniProt O95998 31-194, biotin on the AviTag (BirA ligase) where used biotinylated); experiment: on-yeast binding isotherms; 20 µM used for NBD; yeast-displayed variant; ratio computed with 20 µM put in for NBD
# T3 construct: Soluble decoy receptor; also called hIL-18BP; recombinant IL-18BP
# T3 sequence: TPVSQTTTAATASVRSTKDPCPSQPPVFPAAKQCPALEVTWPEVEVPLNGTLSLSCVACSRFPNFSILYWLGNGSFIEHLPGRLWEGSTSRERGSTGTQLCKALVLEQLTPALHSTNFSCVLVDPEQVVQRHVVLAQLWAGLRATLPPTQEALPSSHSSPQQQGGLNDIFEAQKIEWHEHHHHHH
# [10] = target: T3, Human IL-18BP (amino acids 31-194), …; experiment: on-yeast binding isotherms; KD ratio relative to WT IL-18; yeast-displayed variant; ratio normalized to WT, from the 20 µM placeholder
# [11] = target: T4, Human IL-18Rα ectodomain (amino acids 19-329), biotinylated (human, UniProt Q13478 19-329, biotin on the AviTag (BirA ligase)); experiment: on-yeast binding isotherm (flow cytometry), drawn summary table, IL18Rα (KD)
# T4 construct: range 19-329; Secreted from insect cells (gp67 signal peptide removed); also called hIL-18Rα; hIL18Rα
# T4 sequence: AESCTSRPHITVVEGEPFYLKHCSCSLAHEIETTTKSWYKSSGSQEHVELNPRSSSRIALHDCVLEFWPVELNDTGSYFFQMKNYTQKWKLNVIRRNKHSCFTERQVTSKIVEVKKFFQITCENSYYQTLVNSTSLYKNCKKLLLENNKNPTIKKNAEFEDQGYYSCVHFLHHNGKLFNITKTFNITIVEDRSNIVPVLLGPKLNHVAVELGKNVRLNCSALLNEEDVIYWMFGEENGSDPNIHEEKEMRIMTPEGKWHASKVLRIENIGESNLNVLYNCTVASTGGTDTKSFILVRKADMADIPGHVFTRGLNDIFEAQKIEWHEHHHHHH
# Description: as §2
# [12] = target: T4, Human IL-18Rα ectodomain (amino acids …); experiment: SPR, apparent KD, first value of the cell
# Description: (§3) Surface Plasmon Resonance (SPR) was used to perform biophysical affinity measurements of second generation DR-IL-18 variants (binding to IL-18R vs IL-18BP). Experiments were conducted using a Biacore T100 instrument and carried out at 25° C. Biotinylated IL-18Rα or IL-18BP were immobilized onto a Biacore biotin capture chip (Series S CAP sensor chip, GE Healthcare) to yield an Rmax of ˜50 RU (IL-18Rα) or ˜10 RU (IL-18BP). Measurements were made with serial dilutions of the IL-18 variants in HEPES buffered Saline-P+ buffer (10 mM HEPES pH 7.4, 150 mM NaCl, 0.005% surfactant P20). The surface was regenerated by three 60-sec injections of regeneration buffer (3/4 (v/v) 8M guanidine hydrochloride with ¼ (v/v) 1M sodium hydroxide). Experiments were performed in multiple channels simultaneously for increased observations. All data were analyzed with the Biacore T100 evaluation software version 2.0 with a 1:1 Langmuir binding model.
# [13] = target: T4, Human IL-18Rα ectodomain (amino acids …); experiment: SPR (Biacore T100), hIL-18Rα as surface ligand; Exp 2
# Description: as §3
# [14] = target: T4, Human IL-18Rα ectodomain (amino acids …); experiment: SPR (Biacore T100), hIL-18Rα as surface ligand; Exp 1
# Description: as §3
# [15] = target: T4, Human IL-18Rα ectodomain (amino acids …); experiment: SPR
# [16] = target: T4, Human IL-18Rα ectodomain (amino acids …); experiment: SPR (Biacore T100), hIL-18Rα as surface ligand, 1:1 Langmuir
# Description: as §3
# [17] = target: T4, Human IL-18Rα ectodomain (amino acids …); experiment: SPR, apparent KD, second value of the cell
# Description: as §3
# [18] = target: T3, Human IL-18BP (amino acids 31-194), …; experiment: on-yeast binding isotherms; 20 µM used for NBD; printed without '>'; yeast-displayed variant; ratio computed with 20 µM put in for NBD
# [19] = target: T3, Human IL-18BP (amino acids 31-194), …; experiment: SPR; KD(IL-18BP)/KD(IL-18Rα) normalized to WT IL-18; SPR; ratio from the bound KD BP >10,000 nM
# Description: as §3
# [20] = target: T3, Human IL-18BP (amino acids 31-194), …; experiment: on-yeast binding isotherms; 20 µM used for NBD
# [21] = target: T3, Human IL-18BP (amino acids 31-194), …; experiment: on-yeast binding isotherms; KD ratio relative to WT IL-18
binder,measurement,setting,value
B1,Dissociation Constant Ratio normalized to WT IL-18,[1],1.44e+07
same,Kd,[2],1.09 nM
same,Kd,[3],> 1000 nM
same,Dissociation Constant Ratio normalized to WT IL-18,[4],> 1230
same,Kd,[5],28.7 µM
same,KD ratio IL-18BP/IL-18Rα,[6],> 233
same,Kd,[7],43 nM
same,KD ratio IL-18BP/IL-18Rα,[8],26300
B2,KD ratio IL-18BP/IL-18Rα,[9],> 347
same,Dissociation Constant Ratio normalized to WT IL-18,[10],> 1170
B3,Kd,[11],42 nM
same,Kd,[12],3.9 nM
same,Kd,[13],3.85 nM
same,Kd,[14],3.48 nM
same,Kd,[15],3.5 nM
same,koff,[16],0.00243 s⁻¹
same,kon,[16],631000 M⁻¹ s⁻¹
same,Kd,[17],3.5 nM
same,KD ratio IL-18BP/IL-18Rα,[18],> 480
same,Dissociation Constant Ratio normalized to WT IL-18,[10],> 7000
same,IL-18 BP:Rα Dissociation Constant Ratio,[19],> 5.86e+06
B4,KD ratio IL-18BP/IL-18Rα,[20],> 239
same,Dissociation Constant Ratio normalized to WT IL-18,[21],> 809
B5,KD ratio IL-18BP/IL-18Rα,[20],> 157
same,Dissociation Constant Ratio normalized to WT IL-18,[21],> 534
